{"source": "patent US20230176070A1", "about": "(published 2023)", "binders": {"B1": {"name": "NbPDZ P10 (VHH)", "VHH": "DVQLVESGGGLVQAGGSLRLSCTASGRTFSTYTMAWFRQAPGKEREFVAAITWSGTYYADSVKGRFTISRDNAKNTMYLQMNSLKPEDTAVYICAAVIGSTVDSYSPSDPLEYDYWGQGTQVTVSE"}, "B2": {"name": "G60 (VHH)", "VHH": "QMGRNSAEVQLVESGGSLRLSCAASGSGFSSSIIAWYRQAPGKQRELVAAIGGPGSTNYADFVEGRFTISRDNAKNTGYLQMNNLNPEDTAVYYCNEVTRSGREYWGQGTQVTVSS", "notes": "also called G60(C1)"}, "B3": {"name": "H14 (VHH)", "VHH": "HVQLVESGGGLVQAGGSLRLSCTASGRTFTPYTMGWFRQAPGKEREFVASILWSGNNRDYADSVKDRFAISRDNAKNTAYLQMNSLKPEDTAVYYCAAGDGLGFYRSVNQYDYWGQGTQVTVSS"}}, "key": {"[1]": {"biological_target": "T1, PDZ domain of mitochondrial outer membrane protein 25 (mammalian (so in the source), UniProt P57105 6-100, limits assumed)", "T1 construct": "domain: PDZ domain; Wild type PDZ as coated in ELISA and immobilised in SPR; also called wild type PDZ; OMP25 PDZ domain", "T1 sequence (looked up)": "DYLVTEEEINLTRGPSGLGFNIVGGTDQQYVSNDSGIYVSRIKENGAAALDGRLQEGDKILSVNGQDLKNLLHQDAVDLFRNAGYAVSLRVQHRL", "test": "SPR, PDZ immobilised"}, "[2]": {"biological_target": "T1, PDZ domain of mitochondrial outer …", "test": "indirect ELISA, wild type PDZ coated", "method": "Indirect ELISA was carried out to evaluate the camelid immune response of an antigen and to quantify the relative affinities of antigen-specific Nbs. An antigen was coated onto a 96-well ELISA plate (R&D system) at an amount of approximately 1-10 ng per well in a coating buffer (15 mM sodium carbonate, 35 mM sodium bicarbonate, pH 9.6) overnight at 4° C. The well surface was then blocked with a blocking buffer (DPBS, 0.05% Tween 20, 5% milk) at room temperature for 2 hours. To test an immune response, the immunized serum was serially 5-fold diluted in the blocking buffer. The diluted sera were incubated with the antigen coated wells at room temperature for 2 hours. […] Three washes with 1x PBST (DPBS, 0.05% Tween 20) were carried out to remove nonspecific absorbance between incubations. […] After the STOP solution (R&D system), the plates were read at multiple wavelengths (450 nm and 550 nm) on a plate reader (Multiskan GO, Thermo Fisher). A false positive Nb binder was defined if any of the following two criteria was met: i) the ELISA signal can only be detected at a concentration of 10 μM and was under detected at 1 μM concentration. ii) At 1 μM concentration, a pronounced signal decrease (by more than 10-fold) was detected compared to the signal at 10 μM, while there were no signals can be detected at lower concentrations. […]"}, "[3]": {"biological_target": "T2, glutathione S-transferase (UniProt P08515 1-218 = GST)", "T2 construct": "Expressed in E. coli, purified on GSH resin; also called GST", "T2 sequence (P08515 whole entry)": "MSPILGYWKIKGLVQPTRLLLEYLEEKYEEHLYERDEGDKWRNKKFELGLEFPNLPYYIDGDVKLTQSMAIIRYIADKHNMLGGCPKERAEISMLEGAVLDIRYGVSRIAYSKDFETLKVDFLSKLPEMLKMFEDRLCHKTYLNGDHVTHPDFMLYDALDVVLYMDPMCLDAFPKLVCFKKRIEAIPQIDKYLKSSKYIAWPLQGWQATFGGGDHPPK", "test": "SPR, GST immobilised;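 further: nanobody analytes injected as dilution series over three orders of magnitude across antigen on a CM5 chip, kinetics fitted by 1:1 Langmuir model, optionally with mass transfer, duplicate runs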", "method": "(§1) Nb affinity measurement by SPR. Surface plasmon resonance (SPR, Biacore 3000 system, GE Healthcare) was used to measure Nb affinities. Antigen proteins immobilized on the activated CM5 sensor-chip by the following steps. Protein analytes were diluted to 10-30 μg/ml in 10 mM sodium acetate, pH 4.5, and were injected into the SPR system at 5 μl/min for 420 s. The surface of the sensor was then blocked by 1 M ethanolamine-HCl (pH 8.5). For each Nb analyte, a series of dilution (spanning three orders of magnitude) was injected in HBS-EP+ running buffer (GE-Healthcare) containing 2 mM DTT, at a flow rate of 20-30 μl/min for 120-180 s, followed by a dissociation time of 5-20 mins based on dissociation rate. Between each injection, the sensor chip surface was regenerated with the low pH buffer containing 10 mM glycine-HCl (pH 1.5-2.5), or high pH buffer of 20-40 mM NaOH (pH 12-13). The regeneration was performed with a flow rate of 40-50 μl/min for 30 s. The measurements were duplicated and only highly reproducible data was used for analysis. Binding sensorgrams for each Nb were processed and analyzed using BIAevaluation by fitting with 1:1 Langmuir model or 1:1 Langmuir model with mass transfer."}, "[4]": {"biological_target": "T2, glutathione S-transferase", "test": "indirect ELISA, GST coated;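 further: nanobody dilution series starting at 10 µM binding plate-bound antigen, HRP anti-His or anti-T7 tag detection, TMB absorbance at 450 nm, logIC50 from four-parameter logistic fit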", "method": "(§2) Indirect ELISA was carried out to evaluate the camelid immune response of an antigen and to quantify the relative affinities of antigen-specific Nbs. An antigen was coated onto a 96-well ELISA plate (R&D system) at an amount of approximately 1-10 ng per well in a coating buffer (15 mM sodium carbonate, 35 mM sodium bicarbonate, pH 9.6) overnight at 4° C. The well surface was then blocked with a blocking buffer (DPBS, 0.05% Tween 20, 5% milk) at room temperature for 2 hours. To test an immune response, the immunized serum was serially 5-fold diluted in the blocking buffer. The diluted sera were incubated with the antigen coated wells at room temperature for 2 hours. HRP-conjugated secondary antibodies against llama Fc (Bethyl) were diluted 1:10,000 in the blocking buffer and incubated with each well for 1 hour at room temperature. […] Nbs of both specific binders for test and scramble negative controls were serially 10-fold diluted from 10 μM to 1 μM in the blocking buffer. HRP-conjugated secondary antibodies against His-tag (Genscript) or T7-tag (Thermo) were diluted 1:5,000 or 1:10,000 in the blocking buffer and incubated for 1 hour at room temperature. Three washes with 1x PBST (DPBS, 0.05% Tween 20) were carried out to remove nonspecific absorbance between incubations. After the final wash, the samples were further incubated under dark with freshly prepared w3,3′,5,5′-Tetramethylbenzidine (TMB) substrate for 10 mins at room temperature to develop the signals. After the STOP solution (R&D system), the plates were read at multiple wavelengths (450 nm and 550 nm) on a plate reader (Multiskan GO, Thermo Fisher). A false positive Nb binder was defined if any of the following two criteria was met: i) the ELISA signal can only be detected at a concentration of 10 μM and was under detected at 1 μM concentration. ii) At 1 μM concentration, a pronounced signal decrease (by more than 10-fold) was detected compared to the signal at 10 μM, while there were no signals can be detected at lower concentrations. The raw data was processed by Prism 7 (GraphPad) to fit into a 4PL curve and to calculate logIC50."}, "[5]": {"biological_target": "T2, glutathione S-transferase", "test": "SPR, GST immobilised (legend of FIG. 3H; differs from Table 1)", "method": "as §1"}, "human serum albumin [6]": {"biological_target": "T3, human serum albumin (human, UniProt P02768 25-609)", "T3 construct": "In the mutant screen wild type HSA came from medium of transfected HeLa cells; also called HSA; wild type HSA", "T3 sequence (P02768 25-609 limits assumed)": "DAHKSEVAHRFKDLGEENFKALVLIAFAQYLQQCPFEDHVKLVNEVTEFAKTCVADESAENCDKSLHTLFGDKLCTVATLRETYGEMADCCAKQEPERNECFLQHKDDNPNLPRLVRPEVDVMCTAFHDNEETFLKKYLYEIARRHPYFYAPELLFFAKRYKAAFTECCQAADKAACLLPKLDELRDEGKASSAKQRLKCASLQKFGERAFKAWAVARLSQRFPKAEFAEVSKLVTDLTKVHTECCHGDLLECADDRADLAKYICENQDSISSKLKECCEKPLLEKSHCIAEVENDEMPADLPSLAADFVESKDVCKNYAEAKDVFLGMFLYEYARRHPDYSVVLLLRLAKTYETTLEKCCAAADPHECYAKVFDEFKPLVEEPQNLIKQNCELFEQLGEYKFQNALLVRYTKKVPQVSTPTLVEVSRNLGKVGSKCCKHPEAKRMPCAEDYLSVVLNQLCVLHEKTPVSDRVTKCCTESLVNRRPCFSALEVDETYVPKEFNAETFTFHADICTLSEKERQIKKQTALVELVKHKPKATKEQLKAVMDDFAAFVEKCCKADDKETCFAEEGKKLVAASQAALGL", "test": "SPR, HSA immobilised;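 further: nanobody analytes injected as dilution series across three log units over CM5 chip with amine-coupled antigen, kinetics fitted by 1:1 Langmuir model, optionally with mass transfer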", "method": "as §1"}, "human serum albumin [7]": {"biological_target": "T3, human serum albumin", "test": "indirect ELISA, HSA coated", "method": "as §2"}, "human serum albumin [8]": {"biological_target": "T3, human serum albumin", "test": "SPR, HSA immobilised (legend of FIG. 3I; differs from Table 2)", "method": "as §1"}}}
{"binder": "B1", "values": [{"measurement": "Kd", "setting": "[1]", "value": 0.0044, "unit": "nM"}, {"measurement": "koff", "setting": "[1]", "value": "9.03e-06", "unit": "s⁻¹"}, {"measurement": "kon", "setting": "[1]", "value": "2.06e+06", "unit": "M⁻¹ s⁻¹"}, {"measurement": "WT ELISA affinity (LogIC50 (oD450nm))", "setting": "[2]", "value": 5.21}]}
{"binder": "B2", "values": [{"measurement": "Kd", "setting": "[3]", "value": 1200, "unit": "nM"}, {"measurement": "koff", "setting": "[3]", "value": 0.00586, "unit": "s⁻¹"}, {"measurement": "kon", "setting": "[3]", "value": 4870, "unit": "M⁻¹ s⁻¹"}, {"measurement": "ELISA affinity (LogIC50 (oD450nm))", "setting": "[4]", "value": 2.49}, {"measurement": "Kd", "setting": "[5]", "value": 1300, "unit": "nM"}]}
{"binder": "B3", "values": [{"measurement": "Kd", "setting": "human serum albumin [6]", "value": 0.0223, "unit": "nM"}, {"measurement": "koff", "setting": "human serum albumin [6]", "value": "5.57e-06", "unit": "s⁻¹"}, {"measurement": "kon", "setting": "human serum albumin [6]", "value": 250000, "unit": "M⁻¹ s⁻¹"}, {"measurement": "ELISA affinity (LogIC50 (oD450nm))", "setting": "human serum albumin [7]", "value": 5.96}, {"measurement": "koff", "setting": "human serum albumin [8]", "value": "5.75e-06", "unit": "s⁻¹"}]}
